Experimental data reported in patent publication US20190100594A1 (INHIBRX, published 2019).
Where a chain is given by its changes, count along the chain named.

T1: human GITR-CHO (human, UniProt Q9Y5U5)
T1 construct: expressed on the surface of CHO cells, construct not described; also called human GITR expressed on the surface of CHO cells
T1 sequence (looked up): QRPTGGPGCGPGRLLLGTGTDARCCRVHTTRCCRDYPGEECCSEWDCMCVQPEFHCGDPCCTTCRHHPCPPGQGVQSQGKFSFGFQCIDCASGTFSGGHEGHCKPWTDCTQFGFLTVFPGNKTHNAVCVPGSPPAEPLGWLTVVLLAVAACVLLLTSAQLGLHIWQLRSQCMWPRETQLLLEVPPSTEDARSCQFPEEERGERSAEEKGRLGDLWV

T2: GITR expressed on CHO cells (Homo sapiens (Human), UniProt Q9Y5U5 26-241)
T2 construct: also called glucocorticoid-induced TNFR-related protein; TNFRSF18
T2 sequence: T1 sequence (looked up)

B1: hzC06v1.1 (VHH)
VHH: EVQLLESGGGEVQPGGSLRLSCAASGSVFSIDAMGWYRQAPGKGLELVSALSGISSATYAESVKGRFTISRDNAKNTLYLQMSSLRAEDTAVYYCYADVSTGWGRDAHGYWGQGTLVTV
B2: hzC06v1.2 (VHH)
VHH: B1 VHH with L45R
B3: hzC06v1.3 (VHH)
VHH: B1 VHH with G44Q, L45R
B4: hzC06v1.4 (VHH)
VHH: B1 VHH with K43Q, G44Q, L45R
B5: hzC06v2.2 (VHH)
VHH: B1 VHH with L45R, S49A, A50V
B6: hzC06v2.3 (VHH)
VHH: B1 VHH with G44Q, L45R, S49A, A50V
B7: hzC06v2.4 (VHH)
VHH: B1 VHH with K43Q, G44Q, L45R, S49A, A50V
B8: hzC06v3.7 (VHH)
VHH: EVQLLESGGGEVQPGGSLRLSCAASGSVFSIDAMGWYRQAPGKQRELVAVLSGISSAKYAASAPGRFTISRDAVKNTVYLQMSSLRAEDTAVYYCYADVSTGWGRDAHGYWGQGTLVTV
B9: hzC06v3.9 (VHH)
VHH: B8 VHH with A73N, V74A
B10: hzC06v3.10 (VHH)
VHH: B8 VHH with A61D, S62A, A63V, P64K, D72A, A73S, V74A, K75P
B11: hzC06v3.12 (VHH)
VHH: B8 VHH with D72A, A73S, V74A, K75P
B12: hzCC04v5.5 (VHH)
VHH: EVQLLESGGGEVQPGGSLRLSCAASGFTFSTHGMDWFRQAPGKDLEWVSAIQSGGSWTSYASSVKGRFTISRDNAKNTLYLQMQQLRAEDTAVYWCQNRVTRGQGTLVTV
notes: sheet prints hzCC04, text hzC04; also called hzC04v5.5
B13: hzCC04v5.6 (VHH)
VHH: B12 VHH with Q85N
notes: sheet prints hzCC04, text hzC04; also called hzC04v5.6
B14: hzCC04v5.7 (VHH)
VHH: B12 VHH with Q84D, Q85N
notes: sheet prints hzCC04, text hzC04; also called hzC04v5.7
B15: hzCC04v5.8 (VHH)
VHH: B12 VHH with Q84N, Q85D
notes: sheet prints hzCC04, text hzC04; also called hzC04v5.8
B16: hzCC04v5.9 (VHH)
VHH: B12 VHH with Q84D, Q85D
notes: sheet prints hzCC04, text hzC04; also called hzC04v5.9
B17: hzCC04v5.10 (VHH)
VHH: B12 VHH with Q85D
notes: sheet prints hzCC04, text hzC04; also called hzC04v5.10
B18: hzCC04v5.11 (VHH)
VHH: B12 VHH with Q84N
notes: sheet prints hzCC04, text hzC04; also called hzC04v5.11
B19: hzCC04v5.12 (VHH)
VHH: B12 VHH with Q84S, Q85N
notes: sheet prints hzCC04, text hzC04; also called hzC04v5.12
B20: hzC06v3 (VHH)
VHH: B1 VHH with G44Q, L45R, S49A, A50V, T58K
B21: hzC06v2.1 (VHH)
VHH: B1 VHH with S49A, A50V
B22: hzC06v3.1 (VHH)
VHH: B1 VHH with Q39L, K43Q, G44Q, L45R, S49A, A50V, T58K
B23: hzC06v3.2 (VHH)
VHH: B1 VHH with G44Q, L45R, S49A, A50V, T58K, E61D, R71G
B24: hzC06v3.5 (VHH)
VHH: B1 VHH with G44Q, L45R, S49A, A50V, T58K, D72A, N73S, K75P
B25: hzC06v3.8 (VHH)
VHH: B8 VHH with K75E
B26: hzC06v3.11 (VHH)
VHH: B8 VHH with A61D, S62A, A63V, P64E, D72A, A73S, V74A, K75P
B27: B2 (VHH, not shown: a dimerising Fc or GST; small tags and cut ends)
VHH: QVQLQESGGGLVQPGGSLRLSCAASGSVFSIDSMSWFRQAPGNERELVALITGGHTTTYGDSVKGRFTISRASAPNTVHLQMNSLQPEDTAVYYCNAAVSTGWGRNADDYWGQGTQVTVS
B28: B3 (VHH, not shown: a dimerising Fc or GST)
VHH: QVQLVQSGGGLVQPGGSLRLICAASGSVFSIDSMSWFRQRPGNERELVALITGGRTTTYSDSVKGRFTISRASALNTVHLQMNSLKPEDTAVYYCNAALSTGWGRDASAYWGQGTQVTVS
B29: E2 (VHH, not shown: a dimerising Fc or GST; small tags and cut ends)
VHH: B27 VHH with H55R, G60A, H79Y, Q86K, A98V
B30: F2 (VHH, not shown: a dimerising Fc or GST; small tags and cut ends)
VHH: QLVQSGGGLVQPGESLRLSCAASGSVFSIDSVSWFRQGPGNERELVALITGGRTTTYADSVKGRFTISRANAPNTVHLRMNSLKPEDTAVYYCNAAVSTGWGRNADDYWGQGTQVTVS
B31: H11 (VHH, not shown: a dimerising Fc or GST)
VHH: B27 VHH with Q5V, E6Q, H55R, G60A, Q86K, A98V
B32: B5 (VHH, not shown: a dimerising Fc or GST)
VHH: B27 VHH with Q5V, E6Q, G16E, A40G, H55R, G60A, S73N, Q86E
B33: B7 (VHH, not shown: a dimerising Fc or GST)
VHH: B27 VHH with A40T, L50H, H55R, G60A, S84N, Q86K
B34: C4 (VHH, not shown: a dimerising Fc or GST)
VHH: B27 VHH with Q5V, E6Q, G16E, A40G, H55R, G60A, S73N, Q86K, N106S
B35: C7 (VHH, not shown: a dimerising Fc or GST)
VHH: QVQLQESGGGLVQAGGSLRLSCTASGSIFSIDDMGWYRLAPGKQRELVAVHSGSSTNYGDSVKGRFTISGDSAKNTVYLQMHRLEPEDTAVYYCYAAISSGWGRDAEDYWGQGTQVTVS
B36: B12 (VHH, not shown: a dimerising Fc or GST)
VHH: QVQLQQSGGGLVQAGGSLRLSCAASGSIFSIDAMGWYRLAPGKQRELVAVIDGVSPNYADSVKGRFTISSDIAKNTVYLQMHSPKPEDTAVYYCNADVSTGWGRPADHYWGQGTQVTVS

molecular target: T3, cyno GITR-CHO (cynomolgus monkey); experiment: flow cytometry on cyno GITR-CHO cells
T3 construct: expressed on the surface of CHO cells, construct not described; also called cynomolgus GITR expressed on the surface of CHO cells

Binder | EC50 (read off the curve) [nM]
B1 | ~8
B2 | ~4
B3 | ~4
B4 | ~4
B5 | ~4
B6 | ~4
B7 | ~4

molecular target: T3, cyno GITR-CHO; experiment: flow cytometry on cyno GITR-CHO cells; remark: another data set of the same source

Binder | EC50 (read off the curve) [nM]
B8 | ~2
B9 | ~2
B10 | ~2
B11 | ~2

molecular target: T3, cyno GITR-CHO; experiment: flow cytometry on cyno GITR-CHO cells; remark: another data set of the same source

Binder | EC50 (read off the curve) [nM]
B12 | 1 to 2
B13 | 1 to 2
B14 | 1 to 2
B15 | 1 to 2
B16 | 1 to 2
B17 | 1 to 2
B18 | 1 to 2
B19 | 1 to 2

molecular target: T1, human GITR-CHO; experiment: flow cytometry on human GITR-CHO cells

Binder | EC50 (read off the curve) [nM]
B20 | 1 to 2
B1 | 1 to 2
B2 | 1 to 2
B3 | 1 to 2
B4 | 1 to 2
B21 | 1 to 2
B5 | 1 to 2
B6 | 1 to 2
B7 | 1 to 2

molecular target: T1, human GITR-CHO; experiment: flow cytometry on human GITR-CHO cells; remark: another data set of the same source

Binder | EC50 (read off the curve) [nM]
B22 | ~4
B23 | ~4
B24 | ~4

molecular target: T1, human GITR-CHO; experiment: flow cytometry on human GITR-CHO cells; remark: another data set of the same source

Binder | EC50 (read off the curve) [nM]
B8 | 1 to 2
B25 | 1 to 2
B9 | 1 to 2
B10 | 1 to 2
B26 | 1 to 2
B11 | 1 to 2

molecular target: T1, human GITR-CHO; experiment: flow cytometry on human GITR-CHO cells; remark: another data set of the same source

Binder | EC50 (read off the curve) [nM]
B12 | ~2
B13 | ~2
B14 | ~2
B15 | ~2
B16 | ~2
B17 | ~2
B18 | ~2
B19 | ~2

molecular target: T2, GITR expressed on CHO cells; experiment: flow cytometry on GITR-expressing CHO cells, MFI-FL4

Binder | EC50 (read off the curve) [nM]
B27 | ~0.7
B28 | ~2
B29 | ~1
B30 | ~1

molecular target: T2, GITR expressed on CHO cells; experiment: as above; remark: another data set of the same source

Binder | EC50 (read off the curve) [nM]
B31 | 2 to 3
B32 | 2 to 3
B33 | ~3
B34 | 2 to 3
B35 | ~2
B36 | ~4

molecular target: T2, GITR expressed on CHO cells; experiment: flow cytometry competition on GITR-expressing CHO cells; blocked ligand recombinant GITRL; readout GITRL bound, MFI-FL1
Description: Briefly, in these studies, a flow cytometry assay using GITR expressing CHO cells and recombinant GITRL was used to implement to assess blocking capacity. The GITR antibody, TRX-518, was used as a control for these studies.

Binder | IC50 (read off the curve) [nM]
B31 | 2 to 3
B27 | ~1
B28 | ~3
B32 | 2 to 3
B33 | ~3
B34 | 2 to 3
B29 | ~2
B30 | ~1
B35 | 2 to 3
B36 | ~6
